Test results: the supplement of paper PMC10567573

B1: ACBD3 (parent)
chain: YVASHKIEKEEQEKKRKEEEERRR

Variants of: B1
Test: protein stability index of a GFP-peptide fusion (GPS, HEK-293T) (PSI 1-6); higher = more stable
Settings: c terminus: a fixed tail appended
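Further: lentivirally expressed fusions sorted by FACS into six bins by GFP to DsRed ratio, PSI derived from sequencing read proportions per bin multiplied by bin number.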

| Variant | protein stability index |
| --- | --- |
| E21L | 2.28 |
| E21V | 3.05 |
| E21K | 2.35 |
| E21F | 2.45 |
| E21G | 2.03 |
| E21P | 2.35 |
| E21I | 2.57 |
| E21R | 2.04 |
| E21Q | 2.37 |
| E21T | 2.38 |
| E21M | 2.04 |
| E21Y | 2.15 |
| E21D | 2.25 |
| E21H | 3.13 |
| K6D | 4.14 |
| K6P | 2.67 |
| K6H | 3.21 |
| K6R | 2.74 |
| K6S | 2.77 |
| K6F | 2.79 |
| K6C | 2.98 |
| K6Q | 3.76 |
| K6V | 2.95 |
| K6L | 2.66 |

| Variant | protein stability index |
| --- | --- |
| K6Y | 2.12 |
| K6N | 2.7 |
| K6G | 2.96 |
| K17G | 3.79 |
| K17P | 3.01 |
| K17N | 2.99 |
| K17M | 2.45 |
| K17Y | 2.06 |
| K17E | 2.93 |
| K17V | 2.9 |
| K17Q | 2.07 |
| K17I | 2.35 |
| K17C | 2.41 |
| K17L | 3.14 |
| K17H | 2.74 |
| K17W | 1.84 |
| K17S | 3.09 |
| K17D | 2.77 |
| K17T | 2.35 |
| R16M | 3.23 |
| R16I | 2.69 |
| R16E | 3.75 |
| R16Q | 2.94 |
| R16L | 3 |

| Variant | protein stability index |
| --- | --- |
| R16T | 3.41 |
| R16D | 2.76 |
| R16S | 2.65 |
| R16V | 2.24 |
| R16N | 2.63 |
| R16Y | 2.74 |
| R16H | 2.4 |
| R16C | 2.67 |
| R16P | 2.6 |
| R16W | 2.27 |
| H5P | 3.08 |
| H5I | 3.02 |
| H5Y | 2.42 |
| H5N | 2.4 |
| H5A | 3.1 |
| H5R | 2.46 |
| H5K | 2.61 |
| H5D | 4.25 |
| H5V | 3.05 |
| H5E | 4.24 |
| H5M | 2.5 |
| H5T | 3 |
| H5G | 1.92 |
| H5L | 2.82 |

| Variant | protein stability index |
| --- | --- |
| H5W | 2 |
| H5Q | 2.7 |
| I7K | 2.89 |
| I7H | 3.1 |
| I7G | 3.13 |
| I7T | 3.09 |
| I7M | 2.56 |
| I7C | 3.86 |
| I7A | 3.29 |
| I7Q | 2.25 |
| I7F | 2.53 |
| I7E | 2.89 |
| I7W | 1.81 |
| I7S | 3.22 |
| I7D | 3.86 |
| I7P | 3.35 |
| I7Y | 2.36 |
| I7R | 2.67 |
| E20A | 2.81 |
| E20I | 2.58 |
| E20S | 2.62 |
| E20Q | 2.36 |
| E20T | 2.57 |
| E20Y | 1.58 |

| Variant | protein stability index |
| --- | --- |
| E20D | 2.63 |
| E20P | 1.98 |
| E20V | 1.82 |
| E20G | 1.96 |
| E20L | 1.71 |
| E20C | 3.17 |
| E20F | 2.5 |
| E20N | 2.56 |
| R23M | 2.24 |
| R23A | 2.85 |
| R23Y | 2.64 |
| R23K | 2.74 |
| R23N | 2.74 |
| R23T | 3.43 |
| R23Q | 2.71 |
| R23V | 2.65 |
| R23I | 2.65 |
| R23P | 2.46 |
| R23D | 3.16 |
| R23F | 2.82 |
| R23H | 2.29 |
| K14G | 2.79 |
| K14T | 2.44 |
| K14H | 2.22 |

| Variant | protein stability index |
| --- | --- |
| K14M | 2.62 |
| K14Q | 2.95 |
| K14D | 3.27 |
| K14L | 3 |
| K14P | 2.49 |
| K14N | 2.99 |
| K14S | 2.74 |
| S4A | 2.9 |
| S4D | 3.95 |
| S4M | 2.1 |
| S4C | 2.81 |
| S4H | 2.62 |
| S4P | 3.8 |
| S4N | 2.16 |
| S4R | 2.57 |
| S4W | 1.49 |
| S4L | 2.67 |
| S4E | 3.05 |
| S4F | 2.07 |
| S4Q | 3.14 |
| S4V | 3.28 |
| S4Y | 2.49 |
| S4T | 2.74 |
| K15Q | 3.15 |

| Variant | protein stability index |
| --- | --- |
| K15L | 2.2 |
| K15P | 2.4 |
| K15W | 3.36 |
| K15S | 2.79 |
| K15D | 2.73 |
| K15E | 3.07 |
| K15Y | 2.16 |
| K15H | 3.06 |
| K15M | 2.6 |
| K15N | 2.62 |
| K15F | 2.06 |
| K15V | 2.74 |
| E13P | 2.02 |
| E13G | 2.15 |
| E13C | 2.66 |
| E13S | 3.36 |
| E13H | 2.25 |
| E13N | 2.52 |
| E13K | 1.73 |
| E13F | 2.39 |
| E13M | 2.04 |
| E13L | 2.27 |
| E13V | 2.93 |
| E13I | 2.22 |

| Variant | protein stability index |
| --- | --- |
| E13D | 2.9 |
| E13T | 2.33 |
| E13Q | 2 |
| E10C | 2.19 |
| E10N | 2.79 |
| E10R | 1.87 |
| E10K | 2.46 |
| E10Y | 2.08 |
| E10F | 1.76 |
| E10T | 2.08 |
| E10V | 2.46 |
| E10I | 2.1 |
| E10G | 1.9 |
| E10D | 2.42 |
| E10Q | 1.88 |
| R22H | 2.42 |
| R22Y | 2.87 |
| R22N | 3.14 |
| R22K | 2.69 |
| R22G | 2.68 |
| R22T | 3.28 |
| R22I | 3.59 |
| R22A | 2.45 |
| R22D | 3.24 |

| Variant | protein stability index |
| --- | --- |
| R22S | 2.99 |
| R22Q | 3.11 |
| E18P | 2.25 |
| E18I | 2.42 |
| E18S | 2.22 |
| E18C | 2.12 |
| E18D | 2.38 |
| E18Q | 2.43 |
| E18R | 2.26 |
| E18T | 2.41 |
| E18W | 3.53 |
| E18M | 2.46 |
| E18Y | 1.94 |
| E18A | 3.07 |
| E18L | 2.16 |
| E18H | 1.6 |
| E18N | 1.85 |
| E18V | 1.95 |
| E18K | 2.05 |
| E19F | 2.68 |
| E19N | 1.94 |
| E19L | 2.39 |
| E19S | 2.54 |
| E19R | 2.25 |

| Variant | protein stability index |
| --- | --- |
| E19V | 2.59 |
| E19M | 1.98 |
| E19A | 2.6 |
| E19W | 2.19 |
| E19P | 1.81 |
| E19D | 2.74 |
| E19H | 2.44 |
| E19I | 3.02 |
| E19K | 2.48 |
| E19Q | 2.61 |
| A3P | 1.47 |
| A3R | 2.01 |
| A3N | 2.39 |
| A3T | 2.98 |
| A3Y | 2.13 |
| A3G | 2.33 |
| A3H | 2.15 |
| A3W | 2.85 |
| A3Q | 3.36 |
| A3C | 2.5 |
| A3D | 3.91 |
| A3L | 3.09 |
| A3S | 3.04 |
| A3K | 2.95 |

| Variant | protein stability index |
| --- | --- |
| A3M | 3.14 |
| A3F | 3.72 |
| A3I | 2.61 |
| V2K | 5.05 |
| V2I | 4.51 |
| V2P | 5.11 |
| V2H | 4.14 |
| V2R | 5.49 |
| V2M | 5.36 |
| V2E | 5.85 |
| V2D | 5.36 |
| V2F | 5.16 |
| V2A | 4.73 |
| V2C | 4.4 |
| V2Q | 4.57 |
| V2Y | 4.75 |
| V2S | 5.25 |
| V2T | 5.24 |
| K9T | 2.42 |
| K9V | 2 |
| K9D | 3.61 |
| K9C | 2.5 |
| K9F | 2.72 |
| K9I | 2.29 |

| Variant | protein stability index |
| --- | --- |
| K9W | 1.86 |
| K9E | 3.42 |
| K9S | 2.78 |
| K9Y | 2.28 |
| K9A | 3.03 |
| K9N | 3.19 |
| K9L | 3.07 |
| R24T | 2.27 |
| R24H | 3.01 |
| R24N | 3.67 |
| R24K | 2.65 |
| R24A | 2.94 |
| R24V | 3.46 |
| R24F | 2.85 |
| R24W | 2.63 |
| R24Y | 2.42 |
| R24Q | 3.12 |
| R24S | 2.7 |
| R24D | 3.35 |
| R24L | 2.75 |
| R24M | 2.65 |
| R24I | 2.52 |
| Q12Y | 2.67 |
| Q12T | 2.52 |

| Variant | protein stability index |
| --- | --- |
| Q12D | 3.76 |
| Q12S | 1.82 |
| Q12F | 1.96 |
| Q12E | 3.63 |
| Q12R | 2.26 |
| Q12I | 3.33 |
| Q12K | 2.12 |
| Q12C | 2.92 |
| Q12H | 2.27 |
| E11V | 1.98 |
| E11R | 1.93 |
| E11L | 2.13 |
| E11Q | 2.79 |
| E11T | 4.28 |
| E11A | 3.79 |
| E11I | 2.24 |
| E11P | 1.76 |
| E11G | 2.34 |
| E11M | 2.2 |
| E11W | 2.67 |
| Y1R | 5.49 |
| Y1V | 5.68 |
| Y1I | 5 |
| Y1P | 5.43 |

| Variant | protein stability index |
| --- | --- |
| Y1M | 5.6 |
| Y1H | 5.57 |
| Y1C | 4.93 |
| Y1K | 5.87 |
| Y1G | 4.73 |
| Y1A | 5.78 |
| Y1S | 5.5 |
| Y1Q | 5.5 |
| Y1L | 5.56 |
| Y1W | 5.65 |
| Y1E | 5.83 |
| Y1F | 2.11 |
| E8L | 2.33 |
| E8G | 2.49 |
| E8D | 2.74 |
| E8I | 2.16 |
| E8A | 2.23 |
| E8F | 1.12 |
| E8W | 2.03 |
| E8C | 2.42 |
| E8S | 2.83 |
| E8T | 2.13 |
